# Numbering of substitutions follows the chain as printed.
# B1: AMH19/AML19 (antibody, IgG2, V domains shown)
# VH: QVQLVQSGAEVKKPGASVKVSCKASGYTLTSYGISWVRQAPGQGLEWMGWISAYSGNTKYAQKFQGRVTMTTDTSTSTAYMELRSLRSDDTAVYYCARRQLALDYWGQGTLVTVSS
# VL: EIVMTQSPATLSVSPGERATLSCRASQSISSNLAWYQQKPGQAPRLLIYGASTRATGIPARFSDNGSGTEFTLTISSLQSEDFAVYFCQQYDTWPLTFGGGTKVEIK
# B2: AMH22/AML22 (antibody, IgG2, V domains shown)
# VH: B1 VH with L29F, S31R, K59N, F64L, A102Y, L103F
# VL: EIVMTQSPATLSVSPGERVTLSCRASQSVSSNLAWFQQKPGQAPRPLIYDASTRAAGIPARFSGSGSGTDFTLTISSLQSEDFAVYYCQQYDNWPLTFGGGTKVEIK
# notes: human mAb from IgG2 XenoMouse mice; also called AM-22; antibody I
# B3: AMH11/AML11 (antibody, IgG2, V domains shown)
# VH: QVQLVESGGGVVQPGRSLRLSCATSGITFSSYGMHWVRQAPGKGLEWVAVIWYDGSNKYYADSVKGRFTISRDNSKNTLYLQMNSLRAEDTAVYYCARDTKDYWGQGTLVTVSS
# VL: EIVMTQSPATLSVSPGERATLSCRASQSVSSNLAWYQQKPGQAPRLLIYGASTRAAGIPARFSGGGSGTAFTLTISNLQSEDFAVYYCQHYINWPKWTFGQGTKVDIK
# notes: human mAb from IgG2 XenoMouse mice; also called AM-11; antibody A
# B4: AMH4/AML4 (antibody, IgG2, V domains shown)
# VH: B3 VH with T24A, T28N, Y59H, K101G, D102V
# VL: not shown
# notes: human mAb from IgG2 XenoMouse mice; also called AM-4; antibody B
# B5: AMH7/AML7 (antibody, IgG2, V domains shown)
# VH: QVQLVQSGAEVKKPGASVKVSCKASGYTLTRYGISWVRQAPGQGLEWMGWISAYNGNTNYAQKLQGRVTMTTDTSTSTAYMELRSLRSDDTAVYYCARRDYDILTGYYNGFDPWGQGTLVTVSS
# VL: DIQMTQSPSSLSASVGDRVTITCRASQGIRNDLGWYQQKPGKAPKRLIYAASSLQSGVPSRFSGSGSGTEFTLTISSLQPEDFATYYCLQHKSYPLTFGGGTKVEIK
# notes: human mAb from IgG2 XenoMouse mice; also called AM-7; antibody D
# B6: AMH8/AML8 (antibody, IgG2, V domains shown)
# VH: B5 VH with Y27N, L29F, R31G, K63N
# VL: B5 VL
# notes: human mAb from IgG2 XenoMouse mice; also called AM-8; antibody C
# B7: AMH6/AML6 (antibody, IgG2, V domains shown)
# VH: B5 VH
# VL: B5 VL
# notes: human mAb from IgG2 XenoMouse mice; also called AM-6; antibody E
# B8: AMH10/AML10 (antibody, IgG2, V domains shown)
# VH: QVQLQESGPGLVKPSQTLSLTCTVSGGSISSGGYYWSWIRQHPGKGLEWIGYIYFSGSAYYNPSLKSRVAISVDTSKNQFSLKLSSVTAADTAVYYCAREYYDSSGYPDAFDIWGQGTMVTVSS
# VL: DIQMTQSPSSVSASVGDRVTITCRASQGIRSWLAWYQQKPGKAPKLLIFAASSLQSGVPSRFSGSGSGTEFTLTISSLQPEDFATYYCQQANNFPRTFGQGTKVEIK
# notes: human mAb from IgG2 XenoMouse mice; also called AM-10; antibody F
# B9: AMH5/AML5 (antibody, IgG2, V domains shown)
# VH: QVQLQESGPGLVKPSETLPLTCTVSGGSIRSYYWSWIRQPAGKGLEWIGRIYRSGNTIYNPSLKSRVTMSIDTSKNQFSLTLSSVTAADTAVYYCARENYSESSGLYYYYGMDVWGQGTTVTVSS
# VL: B5 VL with L54F, E70G, K92N, L96P, G100Q
# notes: human mAb from IgG2 XenoMouse mice; tested only as part of a non-clonal hybridoma supernatant; also called AM-5
# B10: AMH1/AML1 (antibody, IgG2, V domains shown)
# VH: QVQLQESGPGLVKPSETLSLTCTVSGGSISNYYWNWIRQSPGKGLEWIGDIYYSGSTNYNPSLKSRVTISVDTSKNQFSLKLSSVTTADTAVYYCARDGELANYYGSGSYQFYYYYGMDVWGQGTTVTVSS
# VL: B5 VL with Q3L, K92N, Y94N, L96F, G100P, E105D
# notes: human mAb from IgG2 XenoMouse mice; also called AM-1; antibody H
# Columns and labels:
# [1] = molecular target: T1, human IL-17RA, full-length, on cells (human, UniProt Q96F46 33-866); assay: cell-based or functional assay
# [2] = molecular target: T1, human IL-17RA, full-length, on cells; assay: cell-based or functional assay; remark: listed apart in the source
# [3] = molecular target: T2, cynomolgus IL-17RA, on cells (cynomolgus); assay: FACS competition: non-clonal supernatant inhibiting biotin-huIL-17A (competitor) binding to cyno IL-17RA+ CHO cells
# T2 construct: whole, on cells; also called CHO-cynoIL-17RA; cyno IL-17RA+ CHO cells
# huIL-17RA-FLAG-polyHis [4] = molecular target: T3, huIL-17RA-FLAG-polyHis (human, UniProt Q96F46 33-320); assay: binning; IL-17RA held by bead mAb B
# T3 construct: also called IL-17RA-FLAG-pHis; wild-type IL-17RA
# Method: (§1) The method employed the Bio-Plex Workstation and software (BioRad, Hercules, Calif.), as well as reagents from Luminex® Corp. (Austin, Tex.). […] The mouse-anti-human IgG coating was evaluated and the beads quantified by FACS. Each bead code was separately incubated with 10 ul of anti-IL-17RA antibody for 1 hour at room temperature and then washed. The beads were pooled and then dispensed to a 96-well filter plate (Millipore, Billerica, Mass., product #MSBVN1250). […] The PE-tagged monovalent antibody will detect the presence of the second mAb added to the well, but not the first mAb captured by the monovalent mouse-anti-human IgG antibody. Beads were resuspended in 120u1 PBSAT and at least 100 events/bead code were collected on the Bio-Plex workstation as per the manufacturer's recommended protocol.
# huIL-17RA-FLAG-polyHis [5] = molecular target: T3, huIL-17RA-FLAG-polyHis; assay: binning; IL-17RA held by bead mAb F
# Method: as §1
# huIL-17RA-FLAG-polyHis [6] = molecular target: T3, huIL-17RA-FLAG-polyHis; assay: binning; IL-17RA held by bead mAb O
# Method: as §1
# huIL-17RA-FLAG-polyHis [7] = molecular target: T3, huIL-17RA-FLAG-polyHis; assay: binning; IL-17RA held by bead mAb L
# Method: as §1
# huIL-17RA-FLAG-polyHis [8] = molecular target: T3, huIL-17RA-FLAG-polyHis; assay: binning; IL-17RA held by bead mAb E
# huIL-17RA-FLAG-polyHis [9] = molecular target: T3, huIL-17RA-FLAG-polyHis; assay: binning; IL-17RA held by bead mAb G
# huIL-17RA-FLAG-polyHis [10] = molecular target: T3, huIL-17RA-FLAG-polyHis; assay: binning; IL-17RA held by bead mAb N
# Method: (§2) The method employed the Bio-Plex Workstation and software (BioRad, Hercules, Calif.), as well as reagents from Luminex® Corp. (Austin, Tex.). The manufacturers' basic protocols were followed except where noted below (see www.bio-rad.com and www.luminexcorp.com for details). […] The mouse-anti-human IgG coating was evaluated and the beads quantified by FACS. Each bead code was separately incubated with 10 ul of anti-IL-17RA antibody for 1 hour at room temperature and then washed. The beads were pooled and then dispensed to a 96-well filter plate (Millipore, Billerica, Mass., product #MSBVN1250). […] The PE-tagged monovalent antibody will detect the presence of the second mAb added to the well, but not the first mAb captured by the monovalent mouse-anti-human IgG antibody. Beads were resuspended in 120u1 PBSAT and at least 100 events/bead code were collected on the Bio-Plex workstation as per the manufacturer's recommended protocol.
# huIL-17RA-FLAG-polyHis [11] = molecular target: T3, huIL-17RA-FLAG-polyHis; assay: binning; IL-17RA held by bead mAb R
# huIL-17RA-FLAG-polyHis [12] = molecular target: T3, huIL-17RA-FLAG-polyHis; assay: binning; IL-17RA held by bead mAb I
# Method: as §1
# huIL-17RA-FLAG-polyHis [13] = molecular target: T3, huIL-17RA-FLAG-polyHis; assay: binning; IL-17RA held by bead mAb A
# Method: as §1
# huIL-17RA-FLAG-polyHis [14] = molecular target: T3, huIL-17RA-FLAG-polyHis; assay: binning; IL-17RA held by bead mAb Q
# huIL-17RA-FLAG-polyHis [15] = molecular target: T3, huIL-17RA-FLAG-polyHis; assay: binning; IL-17RA held by bead mAb P
# Method: as §1
# huIL-17RA-FLAG-polyHis [16] = molecular target: T3, huIL-17RA-FLAG-polyHis; assay: binning; IL-17RA held by bead mAb H
# Method: as §1
# huIL-17RA-FLAG-polyHis [17] = molecular target: T3, huIL-17RA-FLAG-polyHis; assay: binning; IL-17RA held by bead mAb C
# Method: as §1
# huIL-17RA-FLAG-polyHis [18] = molecular target: T3, huIL-17RA-FLAG-polyHis; assay: binning; IL-17RA held by bead mAb K
# huIL-17RA-FLAG-polyHis [19] = molecular target: T3, huIL-17RA-FLAG-polyHis; assay: binning; IL-17RA held by bead mAb J
# Method: as §2
# huIL-17RA-FLAG-polyHis [20] = molecular target: T3, huIL-17RA-FLAG-polyHis; assay: binning; IL-17RA held by bead mAb D
# huIL-17RA-FLAG-polyHis [21] = molecular target: T3, huIL-17RA-FLAG-polyHis; assay: binning; IL-17RA held by bead mAb M
# Method: as §2
Binder,MFI [3],normalized MFI (huIL-17RA-FLAG-polyHis [4]),normalized MFI (huIL-17RA-FLAG-polyHis [5]),normalized MFI (huIL-17RA-FLAG-polyHis [6]),normalized MFI (huIL-17RA-FLAG-polyHis [7]),normalized MFI (huIL-17RA-FLAG-polyHis [8]),normalized MFI (huIL-17RA-FLAG-polyHis [9]),normalized MFI (huIL-17RA-FLAG-polyHis [10]),normalized MFI (huIL-17RA-FLAG-polyHis [11]),normalized MFI (huIL-17RA-FLAG-polyHis [12]),normalized MFI (huIL-17RA-FLAG-polyHis [13]),normalized MFI (huIL-17RA-FLAG-polyHis [14]),normalized MFI (huIL-17RA-FLAG-polyHis [15]),normalized MFI (huIL-17RA-FLAG-polyHis [16]),normalized MFI (huIL-17RA-FLAG-polyHis [17]),normalized MFI (huIL-17RA-FLAG-polyHis [18]),normalized MFI (huIL-17RA-FLAG-polyHis [19]),normalized MFI (huIL-17RA-FLAG-polyHis [20]),normalized MFI (huIL-17RA-FLAG-polyHis [21]),further results
B1,,,,,,,,,,,,,,,,,,,,"IL-17A/HFF bioassay IC50, subclone 10 [1]: 0.22 nM; IL-17A/HFF bioassay IC50, subclone 11 [1]: 1.1 nM; IL-17A/HFF bioassay IC50, subclone 12 [1]: 0.5 nM; IL-17A/HFF IC50 [2]: 0.2 nM; IL-17A/lung fibroblast IC50 [2]: 0.22 nM; IL-17F/HFF IC50 [2]: 0.087 nM"
B2,18,,,,,,,,,,,,,,,,,,,
B3,9,1200,345,3800,3020,300,454,2650,7060,5300,-220,9650,6590,8640,330,7210,2320,337,1860,
B4,,453,173,2640,1980,182,235,1950,5880,3710,-326,8280,5020,6790,150,4970,1400,213,1300,
B5,,684,269,5540,4260,192,318,3840,3550,6650,-233,4690,5640,3180,217,8680,3640,207,2980,
B6,,816,239,5520,3540,163,346,3630,3950,6720,-178,5500,5960,2950,260,8220,3590,264,2880,
B7,,447,152,3310,2660,130,334,2410,1660,4330,-70.5,2390,3530,2540,173,5600,2420,168,1770,
B8,,545,187,2630,1720,175,342,1510,1120,3110,114,1650,1720,3970,253,4110,2120,179,1020,
B9,9,,,,,,,,,,,,,,,,,,,
B10,11,,,,,,,,,,,,,,,,,,,

# — US20120251547A1 (Amgen, published 2012)
